{"source": "paper PMC7898620", "key": {"RbmA W119G mutant": {"molecular_target": "RbmA W119G mutant", "test": "SEC-MALS", "conditions": "parent: est. 58; read off a plot"}, "RbmA E160A mutant": {"molecular_target": "RbmA E160A mutant", "test": "SEC-MALS", "conditions": "parent: est. 58; read off a plot"}, "RbmA R219A mutant": {"molecular_target": "RbmA R219A mutant", "test": "SEC-MALS", "conditions": "parent: est. 58; read off a plot"}, "RbmA W222G mutant": {"molecular_target": "RbmA W222G mutant", "test": "SEC-MALS", "conditions": "parent: est. 58; read off a plot"}, "[1]": {"molecular_target": "Rugosity and biofilm structure modulator A (RbmA), wild type (Vibrio cholerae)", "test": "SEC-MALS; ENrich SEC 70 column, 20 mM Tris pH 8.0, 200 mM NaCl, 2 mM DTT, 0.02% NaN3, 240-360 ug protein injected; without MgPO4"}, "[2]": {"molecular_target": "Rugosity and biofilm structure modulator A (RbmA), wild type (Vibrio cholerae)", "test": "AUC; sedimentation velocity, 40,000 RPM, RbmA 5 mg/ml, absorbance at 250 nm and Rayleigh interference; without MgPO4"}, "[3]": {"molecular_target": "Rugosity and biofilm structure modulator A (RbmA), wild type (Vibrio cholerae)", "test": "time-resolved SAXS; stopped-flow mixing, 5 mg/ml RbmA in 20 mM Tris/HCl pH 8, 100 mM NaCl with 10 mM potassium phosphate and 2.5 mM MgCl2; followed for 3 hr"}, "[4]": {"molecular_target": "RbmA W119G mutant (Vibrio cholerae)", "test": "SEC-SAXS; analytical Superdex 200 increase 3.2/300 column in line with SAXS, 0.075 ml/min; without MgPO4", "conditions": "scale: mol monomer per mol dimer"}, "[5]": {"molecular_target": "RbmA R219A mutant (Vibrio cholerae)", "test": "SEC-SAXS; analytical Superdex 200 increase 3.2/300 column in line with SAXS, 0.075 ml/min; without MgPO4", "conditions": "scale: mol monomer per mol dimer"}}, "note": "“And” between values parts separate entries of the source, which are not always exact repeats. Identical values can stand only once.", "data": [{"substance": "Rugosity and biofilm structure modulator A (RbmA), wild type W119G", "values": [{"measurement": "other: SEC-MALS average molecular weight", "setting": "RbmA W119G mutant", "result": 49, "unit": "kg/mol"}]}, {"substance": "Rugosity and biofilm structure modulator A (RbmA), wild type E160A", "values": [{"measurement": "other: SEC-MALS average molecular weight", "setting": "RbmA E160A mutant", "result": 57, "unit": "kg/mol"}]}, {"substance": "Rugosity and biofilm structure modulator A (RbmA), wild type R219A", "values": [{"measurement": "other: SEC-MALS average molecular weight", "setting": "RbmA R219A mutant", "result": 36, "unit": "kg/mol"}]}, {"substance": "Rugosity and biofilm structure modulator A (RbmA), wild type W222G", "values": [{"measurement": "other: SEC-MALS average molecular weight", "setting": "RbmA W222G mutant", "result": 58, "unit": "kg/mol"}]}, {"substance": "Rugosity and biofilm structure modulator A (RbmA), wild type (natural protein)", "values": [{"measurement": "stoichiometry N", "setting": "[1]", "result": 2}, {"measurement": "stoichiometry N", "setting": "[2]", "result": "4 and 2"}, {"measurement": "stoichiometry N", "setting": "[3]", "result": 6}]}, {"substance": "RbmA W119G mutant (natural protein)", "values": [{"measurement": "dimer:monomer molar ratio", "setting": "[4]", "result": 2.5}]}, {"substance": "RbmA R219A mutant (natural protein)", "values": [{"measurement": "monomer:dimer molar ratio", "setting": "[5]", "result": 3.5}]}]}
